{"source": "paper PMC13367182", "key": {"[1]": {"molecular_target": "mononucleosome with deletion of the histone H3 tail (human) (UniProt P04908)", "experiment": "AlphaScreen or HTRF"}, "[2]": {"molecular_target": "mononucleosome with deletion of the histone H4 tail (human) (UniProt P04908)", "experiment": "AlphaScreen or HTRF"}}, "data": [{"substance": "HIV-1 intasome assembled in the presence of LEDGF/p75 (from UniProt O75475 1-530) (complex)", "values": [{"measurement": "decrease in the bridging signal against native nucleosomes", "setting": "[1]", "result": 20, "unit": "%"}, {"measurement": "decrease in the bridging signal against native nucleosomes", "setting": "[2]", "result": 20, "unit": "%"}]}]}
